# In patent US6465220:
# What was measured:
# [1] = test system: GalNAc4TAP24 glycopeptide
# [2] = test system: EA2 peptide
# [3] = test system: Muc1a′ peptide
# [4] = test system: Muc1b′ peptide
# [5] = test system: Muc2 peptide
# [6] = test system: Muc7 peptide
# [7] = test system: PSGL-1b peptide
# [8] = test system: TAP24 peptide
# [9] = test system: PSGL-1a peptide
# [10] = test system: hCG-β peptide
# Sequence of hCG-β peptide (chain, as listed by the source): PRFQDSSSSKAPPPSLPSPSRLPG
# Sequence of soluble recombinant human GalNAc-T2 (pAcGP67-GalNAc-T2-sol) (chain, as listed by the source): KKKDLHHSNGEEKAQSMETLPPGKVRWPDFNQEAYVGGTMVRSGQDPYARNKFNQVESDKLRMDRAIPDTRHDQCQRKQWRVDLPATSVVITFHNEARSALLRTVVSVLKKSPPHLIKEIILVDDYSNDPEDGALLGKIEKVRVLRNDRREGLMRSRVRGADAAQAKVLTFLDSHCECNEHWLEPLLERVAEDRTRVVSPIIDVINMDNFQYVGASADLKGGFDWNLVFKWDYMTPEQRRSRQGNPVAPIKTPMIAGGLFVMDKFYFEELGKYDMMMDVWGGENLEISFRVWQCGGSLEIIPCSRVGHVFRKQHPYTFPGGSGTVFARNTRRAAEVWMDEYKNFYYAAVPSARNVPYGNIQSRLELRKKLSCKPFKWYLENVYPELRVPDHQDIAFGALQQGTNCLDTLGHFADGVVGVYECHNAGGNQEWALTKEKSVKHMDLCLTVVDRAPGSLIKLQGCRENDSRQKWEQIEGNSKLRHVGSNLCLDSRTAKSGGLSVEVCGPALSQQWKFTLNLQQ
# Sequence of soluble human GalNAc-T4 (pAcGP67-GalNAc-T4506Vsol), amino acid residues 32-578 (chain, as listed by the source): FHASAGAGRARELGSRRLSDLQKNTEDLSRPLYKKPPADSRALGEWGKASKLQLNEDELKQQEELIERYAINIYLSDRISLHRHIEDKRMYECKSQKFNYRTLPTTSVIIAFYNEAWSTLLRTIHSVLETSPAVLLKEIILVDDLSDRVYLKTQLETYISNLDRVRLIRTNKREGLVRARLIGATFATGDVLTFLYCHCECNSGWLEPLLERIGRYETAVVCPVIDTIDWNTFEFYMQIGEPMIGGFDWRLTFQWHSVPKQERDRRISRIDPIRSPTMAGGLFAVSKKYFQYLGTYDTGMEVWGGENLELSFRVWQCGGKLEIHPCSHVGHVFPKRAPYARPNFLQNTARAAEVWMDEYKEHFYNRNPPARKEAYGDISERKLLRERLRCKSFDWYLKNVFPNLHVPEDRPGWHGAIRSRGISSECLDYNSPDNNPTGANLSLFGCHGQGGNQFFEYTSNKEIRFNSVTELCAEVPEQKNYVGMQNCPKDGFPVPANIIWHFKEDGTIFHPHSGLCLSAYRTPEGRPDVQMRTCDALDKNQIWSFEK
# Sequence of PSGL-1b peptide (chain, as listed by the source): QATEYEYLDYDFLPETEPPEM
# Sequence of full coding human GalNAc-T4 (pVL-GalNAc-T4506Vfull) expressed in Sf9 cells (chain, as listed by the source): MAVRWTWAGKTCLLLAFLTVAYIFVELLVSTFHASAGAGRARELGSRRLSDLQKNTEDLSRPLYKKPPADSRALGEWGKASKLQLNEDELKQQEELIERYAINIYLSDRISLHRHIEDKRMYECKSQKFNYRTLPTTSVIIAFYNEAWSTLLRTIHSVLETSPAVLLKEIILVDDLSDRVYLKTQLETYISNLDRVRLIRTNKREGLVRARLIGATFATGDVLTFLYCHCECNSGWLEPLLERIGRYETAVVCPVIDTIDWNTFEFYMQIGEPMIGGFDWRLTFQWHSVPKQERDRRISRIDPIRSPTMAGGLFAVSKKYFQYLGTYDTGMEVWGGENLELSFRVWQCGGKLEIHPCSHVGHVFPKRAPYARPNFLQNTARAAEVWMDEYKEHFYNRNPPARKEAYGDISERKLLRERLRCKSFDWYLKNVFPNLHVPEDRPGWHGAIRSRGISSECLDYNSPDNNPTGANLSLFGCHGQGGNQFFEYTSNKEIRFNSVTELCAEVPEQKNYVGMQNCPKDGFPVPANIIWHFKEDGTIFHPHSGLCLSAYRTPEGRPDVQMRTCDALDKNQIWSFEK
Substance,GalNAc-transferase activity at 0.06 mM peptide (milliunits/mg) [2],GalNAc-transferase activity at 0.25 mM peptide (milliunits/mg) [2],Km for acceptor substrate [2],Vmax [2],GalNAc-transferase activity at 0.06 mM peptide (milliunits/mg) [1],GalNAc-transferase activity at 0.25 mM peptide (milliunits/mg) [1],GalNAc-transferase activity at 0.25 mM peptide (milliunits/mg) [3],GalNAc-transferase activity at 1 mM peptide (milliunits/mg) [3],GalNAc-transferase activity at 0.25 mM peptide (milliunits/mg) [4],GalNAc-transferase activity at 1 mM peptide (milliunits/mg) [4],GalNAc-transferase activity at 0.06 mM peptide (milliunits/mg) [5],GalNAc-transferase activity at 0.25 mM peptide (milliunits/mg) [5],GalNAc-transferase activity at 0.06 mM peptide (milliunits/mg) [6],GalNAc-transferase activity at 0.25 mM peptide (milliunits/mg) [6],Km for acceptor substrate [6],Vmax [6],GalNAc-transferase activity at 0.06 mM peptide (milliunits/mg) [7],GalNAc-transferase activity at 0.25 mM peptide (milliunits/mg) [7],Km for acceptor substrate [7],GalNAc-transferase activity at 0.06 mM peptide (milliunits/mg) [8],further results
full coding human GalNAc-T4 (pVL-GalNAc-T4506Vfull) expressed in Sf9 cells,–,–,–,–,–,–,–,–,–,–,–,–,–,–,–,–,–,–,–,–,GalNAc incorporation by MALDI-TOF of HPLC-purified product [1]: no incorporation was detected
"soluble human GalNAc-T4 (pAcGP67-GalNAc-T4506Vsol), amino acid residues 32-578",15,42,2190 µM,0.44 nmol/min/µg,4.4,7.1,2,6.7,0.7,0.9,9,29,21,53,480 µM,0.25 nmol/min/µg,1.2,1.4,20 µM,0.8,Km for acceptor substrate [1]: 90 µM; Vmax [1]: 0.007 nmol/min/µg; Vmax [7]: 0.003 nmol/min/µg; GalNAc-transferase activity at 0.25 mM peptide (milliunits/mg) [8]: 2.7
soluble recombinant human GalNAc-T2 (pAcGP67-GalNAc-T2-sol),152,376,850 µM,1.8 nmol/min/µg,0,0,28,83,198,582,169,128,737,396,15 µM,0.64 nmol/min/µg,0.3,0.3,> 2000 µM,73,GalNAc-transferase activity [9]: exhibited poor activities with both peptide designs; GalNAc-transferase activity at 0.06 mM peptide (milliunits/mg) [9]: 0; GalNAc-transferase activity at 0.25 mM peptide (milliunits/mg) [9]: 0; GalNAc-transferase activity [7]: exhibited poor activities with both peptide designs; GalNAc-transferase activity at 0.25 mM peptide (milliunits/mg) [8]: 222; GalNAc-transferase activity at 0.06 mM peptide (milliunits/mg) [10]: 22; GalNAc-transferase activity at 0.25 mM peptide (milliunits/mg) [10]: 74
